Measured values from patent US20190248902A1 (published 2019).
Substitutions are numbered along the chain they refer to.

T1: Cyno ASGR-1 (cynomolgus monkey, UniProt P07306 1-291 (human entry))
T1 construct: Expressed on HEK 293 cells or as membrane prep on beads; cDNA from XP_005582755; also called cynomologus monkey ASGR-1
T1 chain: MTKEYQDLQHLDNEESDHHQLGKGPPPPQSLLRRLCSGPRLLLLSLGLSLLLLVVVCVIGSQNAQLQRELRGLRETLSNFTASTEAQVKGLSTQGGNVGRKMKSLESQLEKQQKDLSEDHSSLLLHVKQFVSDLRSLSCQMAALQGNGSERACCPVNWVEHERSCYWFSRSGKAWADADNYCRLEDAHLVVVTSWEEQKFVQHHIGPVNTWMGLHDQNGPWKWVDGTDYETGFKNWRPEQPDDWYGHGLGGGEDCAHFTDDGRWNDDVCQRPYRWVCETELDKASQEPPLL

T2: Dog ASGR-1 (dog)
T2 construct: Expressed on HEK 293 cells or as membrane prep on beads; cDNA GenBank XM_546579
T2 chain: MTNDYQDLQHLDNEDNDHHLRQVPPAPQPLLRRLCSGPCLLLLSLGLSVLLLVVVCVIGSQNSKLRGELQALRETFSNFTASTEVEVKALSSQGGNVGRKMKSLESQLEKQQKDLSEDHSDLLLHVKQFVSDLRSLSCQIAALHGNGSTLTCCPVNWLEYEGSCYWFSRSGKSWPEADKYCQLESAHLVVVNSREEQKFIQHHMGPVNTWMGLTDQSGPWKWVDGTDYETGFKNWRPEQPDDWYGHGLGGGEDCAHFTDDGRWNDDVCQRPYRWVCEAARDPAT

T3: Pig ASGR-1 (pig)
T3 construct: Expressed on HEK 293 cells or as membrane prep on beads; cDNA GenBank NM_001244458
T3 chain: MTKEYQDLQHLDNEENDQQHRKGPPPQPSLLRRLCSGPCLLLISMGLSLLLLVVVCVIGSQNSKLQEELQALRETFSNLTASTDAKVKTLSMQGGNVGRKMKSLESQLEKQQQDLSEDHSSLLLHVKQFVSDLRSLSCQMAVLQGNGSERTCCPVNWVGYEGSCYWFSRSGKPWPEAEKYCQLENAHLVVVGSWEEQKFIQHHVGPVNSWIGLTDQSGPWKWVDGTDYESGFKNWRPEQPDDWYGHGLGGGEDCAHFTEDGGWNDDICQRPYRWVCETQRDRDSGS

T4: Rat ASGR-1 (rat, UniProt P02706 1-284)
T4 construct: Expressed on HEK 293 cells or as membrane prep on beads; cDNA GenBank NM_012503
T4 sequence: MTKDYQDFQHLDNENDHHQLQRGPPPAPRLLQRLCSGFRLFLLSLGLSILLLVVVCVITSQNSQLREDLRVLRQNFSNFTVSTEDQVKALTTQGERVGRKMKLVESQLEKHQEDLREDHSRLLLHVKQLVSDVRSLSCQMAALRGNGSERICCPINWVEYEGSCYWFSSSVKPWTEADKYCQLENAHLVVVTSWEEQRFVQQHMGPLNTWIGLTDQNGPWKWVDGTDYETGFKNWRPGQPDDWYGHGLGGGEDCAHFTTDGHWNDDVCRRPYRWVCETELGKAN

B1: 190F8 (antibody, V domains shown)
VH: QVQLVESGGGVVQPGRSLRLSCAASGFTFSTYGMHWVRQAPGKGLEWVAVIWYDGSNKNYADSVKGRFTISRDNSKNTLYLQMNSLRAEDTAVYYCARDQGVGYDGLDVWGQGTTVTVSS
VL: DIQMTQSPSSLSASVGDRVTITCRTSQGIGNYLAWFQQKPGKAPKSLLYKASSLQSGVPSKFSGSGSGTDFTLTISSLQPEDFATYYCQQYMTYPLTFGGGTKVEIK
notes: Tested as hybridoma supernatant at normalized concentration
B2: 197G3 (antibody, V domains shown)
VH: B1 VH with A23V, T31S, Y32H, Q100P, G101S, L107M
VL: DIQMTQSPSSLSASVGDRVTITCRASQGIGNHLAWFQQKPGKAPKSLIYAASSLQSGVPSKFSGSRSGTDFSLTISSLQPEDFATYYCQQYSNYPVTFGPGTKVDIK
notes: as for B1
B3: 194C1 (antibody, V domains shown)
VH: B1 VH with T31S, K58E, N59H, D99N, Q100R, D105Y
VL: B1 VL with T25A, G30S, L48I, K50A, Q89L, Q90H, M92L
notes: as for B1
B4: 198G3 (antibody, V domains shown)
VH: B1 VH with R19K, S56T, Y80C
VL: B1 VL with T5A, N31K, S56G
notes: as for B1
B5: 191G10 (antibody, V domains shown)
VH: B1 VH with T31S
VL: B1 VL with N31K, A51V
notes: as for B1
B6: 191G1 (antibody, V domains shown)
VH: B1 VH with T31S, K58E, N59H, Q100R, D105Y
VL: B1 VL with T25A, G30S, L48I, K50A, Q90H, M92L
notes: as for B1
B7: 194C10 (antibody, V domains shown)
VH: QVQLQQWGAGLLKPSETLSLTCAVSGGSFRYYYWSWIRQPPGKGLEWFGEINHSGSTNYNPSLKSRVTISIDTSKNQFSLKLRSVTAADTAVYYCARDYGAFDIWGQGTMVTVSS
VL: EIVLTQSPGTLSLSPGERATLSCRASPSVNSGYLAWYQQKPGQTPRLLIFGASSRATGIPDRFSASGSGADFTLTISRLEPEDFAVYFCQQYESSPWTFGQGTKVEIK
notes: as for B1
B8: 184E7 (antibody, V domains shown)
VH: QVQLVQSGAEVKTPGASVKVSCRASGYTFTSYNMHWVRQVPGQGLEWMGWINPNNGGSNYTQKFQGRVTMTRDTSISTAYMELSRLRSDDTAVYYCARKFGDWGQGTLVTVSS
VL: DIQMTQSPSSRSASIGERVTITCRASQGISNYLAWIQQKPGTAPKSLIYAASSLQSGVSSRFSGSGFGTDFTITISSVQREDFATYYCQQYNGYPFTFGHGTKVDIK
notes: as for B1
B9: 176H4 (antibody, V domains shown)
VH: QVQLVESGGGVVQPGRSLRLSCAASGFTFSSYGMHWVRQAPGKGLEWVAIIWYDGSYKYYADSVKGRFTISRDNSKNTLYLQMSSLRAEDTAVYYCARDAHDFWSGYFAYWGQGALVTVSS
VL: DIVMTQTPLSLSVTPGQPASISCKSSQSLLHGDGKTYLYWYLQKPGQPPQLLIYEVSNRFSGVPDRFSGSGSGTDFTLKISRVEAEDVGIYYCMQSIQIPWTFGQGTRVEIK
notes: as for B1
B10: 12D2 (antibody, V domains shown)
VH: EVQLVESGGGLVKPGGSLRLSCAASGFTFSSYSMNWVRQAPGKGLEWVSSISSSSSYIYYADSVKGRFTISRDNAKNSLYLQMNSLRAEDTAVYYCARLGDYWGQGTLVAVSS
VL: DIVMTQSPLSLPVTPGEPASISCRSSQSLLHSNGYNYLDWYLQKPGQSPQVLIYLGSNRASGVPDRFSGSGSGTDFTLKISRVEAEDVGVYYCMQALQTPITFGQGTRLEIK
notes: as for B1
B11: 218G4 (antibody, V domains shown)
VH: QVQLVESGGGVVQPGRSLRLSCAASGFTFSSYGLHWVRQAPGKGLEWVAVIWYDGSNKYYADSVKGRFTISRDNSKNTLYLQMNSLRVEDTAVYYCANWYYYYYGMDVWGQGTTVTVSS
VL: QSVLTQPPSVSAAPGQKVTISCSGSSSNIGNNYVSWYQQLPGTAPKLLLYDSNKRPSGIPARFSGSKSGTSATLGITGLQTGDEADYYCGTWDSSLNTVVFGGGTKLTVL
notes: as for B1
B12: 75G3 (antibody, V domains shown)
VH: QVQLQQWGAGLLKPSETLSLTCAVYGGSLSGSYWSWIRQPPGKGLEWIGEINLSGSTNYNPSLKSRVTISVDTSKSQFSLTLRSVTAADTAVYYCARDYGGLDYWGQGTLVTVSS
VL: EIVLTQSPGTLSLSPGERATLSCRARQNVDSSYLAWYQQKPGQAPRLLIYGASSRATGIPDRFSGSGSGTDFTLTISRLEPEDFAVFYCQQYERSPWTFGQGTKVEIK
notes: as for B1
B13: 202A3 (antibody, V domains shown)
VH: QVQLEQSGAEVKKPGASVKVSCKASGYTFTSYDINWVRQATGQGLEWLGWMNPKRGNTGYAQKFQGRVTMTRNTSISTAHMELSSLRSEDTAVYYCARGRYSREDYYYYYDMDVWGQGTTVTVSS
VL: DIQMSQSPSSLSASVGDRVTITCRASQGIRNDLGWYQQKPGKAPKRLICAASRLQSGVPSRFSGSGSGTEFTLTISSLQPEDFAIYYCLQHHDYPFTFGPGTKVDIK
notes: as for B1

Assays:
[1] = molecular target: T1, Cyno ASGR-1; assay: FACS on transfected HEK 293 cells or membrane preps on beads; Y = signal at least 2x irrelevant IgG
Description: (§1) Human ASGR-1-specific, ligand competing antibody samples were tested for binding to ASGR-1 from other species (cynomologus monkey ASGR-1, mouse ASGR-1, rat ASGR-1, dog ASGR-1, and pig ASGR-1) as well as to human ASGR-2 in FACS binding assays at normalized antibody concentrations. For cell-based assays, HEK 293 cells expressing the appropriate antigen of interest were mixed with antibody sample or controls, incubated for 1 hour at 4° C., and then washed twice. Cells with bound antibody were then incubated with Alexa Fluor® 647 IgG Fc fragment-specific detection antibody and 7-AAD viability stain for 15 minutes at 4° C., washed once and resuspended in FACS buffer. Samples were analyzed using a BD Accuri™ Flow Cytometer and an Intellicyt HyperCyt Autosampler. As a negative control, supernatants and controls were also screened against HEK 293 cells transfected with empty parental vector. […] For membrane-prep binding assays, ASGR-1 species specific membrane preps were used to coat LumAvidin® microspheres (beads) and tested for binding to selected hybridoma supernatants or controls. Briefly, ASGR-1 species specific membrane preps were incubated with streptavidin-coated LumAvidin® beads for 45 minutes in the dark at room temperature and washed twice. Beads were resuspeneded in FACS buffer containing Stabilguard®. Antigen-bound beads were then incubated with normalized antibody sample for 1 hour in the dark at room temperature, washed twice, incubated with Alexa Fluor® 488 IgG Fc fragment-specific detection antibody for 15 minutes in the dark at room temperature, washed once and finally resuspended in FACS buffer. Samples were analyzed using an Intellicyt iQue™ Screener Platform. FACS buffer supplemented with 1 mM Calcium Chloride was used in all steps. As a negative control, supernatants and controls were also screened against a non-ASGR-1 antigen membrane prep coated on the LumAvidin® beads.

[2] = molecular target: T2, Dog ASGR-1; assay: as above
Description: as §1

[3] = molecular target: T3, Pig ASGR-1; assay: as above
Description: as §1

[4] = molecular target: T4, Rat ASGR-1; assay: FACS on transfected HEK 293 cells or membrane preps on beads; binding = signal at least 2x irrelevant IgG
Procedure, shortened: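 Antibodies at normalized concentrations bound 1 h at 4° C to HEK 293 cells expressing each antigen, then Alexa Fluor 647 anti-Fc plus 7-AAD 15 min at 4° C, flow cytometry; empty-vector cells as negative. Alternatively, species ASGR-1 membrane preps on streptavidin beads, antibody 1 h RT, Alexa Fluor 488 anti-Fc; FACS buffer with 1 mM CaCl2 throughout.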

[5] = molecular target: T4, Rat ASGR-1; assay: FACS on transfected HEK 293 cells or membrane preps on beads; Y = signal at least 2x irrelevant IgG
Description: as §1

Binder	binding result [1]	binding result [2]	binding result [3]	binding result [4]	binding result [5]
B1	binds	binds	binds	no binding	–
B2	binds	binds	binds	no binding	–
B3	binds	binds	binds	no binding	–
B4	binds	binds	binds	no binding	–
B5	binds	binds	binds	no binding	–
B6	binds	binds	binds	no binding	–
B7	binds	binds	binds	no binding	–
B8	binds	binds	binds	–	binds
B9	binds	binds	binds	no binding	–
B10	binds	binds	binds	–	binds
B11	binds	binds	binds	no binding	–
B12	binds	binds	binds	no binding	–
B13	binds	binds	binds	no binding	–
